Numbering of substitutions follows the chain as printed.
B1: LSPVSSQSSA-RANTES (10-68) (P1) (ligand, human)
chain: LSPVSSQSSACCFAYIARPLPRAHIKEYFYTSGKCSNPAVVFVTRKNRQVCANPEKKWVREYINSLEMS
notes: range 33-91; Made by total chemical synthesis; The range 10-68 counts on mature RANTES, not on the precursor; also called mutant P1; variant P1
B2: FSPLSSQSSA-RANTES (10-68) (P2) (ligand, human)
chain: B1 chain with L1F, V4L
notes: range 33-91; Made by total chemical synthesis; The range 10-68 counts on mature RANTES, not on the precursor; also called mutant P2; RANTES P2

What was measured:
[1] = biological target: T1, CCR5 (UniProt P51681 1-352, limits assumed); test: cell-based or functional assay
[2] = biological target: T1, CCR5; test: competitive radioligand binding on whole CHO-CCR5 cells at 4 C, 12 pM [125I]MIP-1α tracer
Procedure: Assays were carried out essentially as (11). CHO—CCR5 cells were seeded into 24 well plates (8×10⁴ cells/well). […] After incubation, cells were washed, lysed, and the lysaes counted using a Beckman Gamma 4000 scintillation counter. Determinations were performed in duplicate and IC₅₀ values derived from monophasic curves (competition binding; one-site) fitted using Prism software (GraphPad).

T1 sequence (P51681 whole entry): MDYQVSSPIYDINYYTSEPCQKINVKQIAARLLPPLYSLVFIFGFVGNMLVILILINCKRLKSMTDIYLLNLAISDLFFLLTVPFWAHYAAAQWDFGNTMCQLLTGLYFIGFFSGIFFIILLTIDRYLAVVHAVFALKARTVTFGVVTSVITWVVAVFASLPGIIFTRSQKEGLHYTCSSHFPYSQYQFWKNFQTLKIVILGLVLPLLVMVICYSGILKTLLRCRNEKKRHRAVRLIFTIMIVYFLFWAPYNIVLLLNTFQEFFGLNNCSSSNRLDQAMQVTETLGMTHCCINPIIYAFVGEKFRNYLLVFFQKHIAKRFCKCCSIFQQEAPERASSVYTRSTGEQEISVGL

Binder	IC50, R5-tropic envelope-mediated cell fusion assay [1] [nM]	IC50 [2] [nM]
B1	7	0.3
B2	0.6	0.2
